Results taken from publication PMC10237034 (Molecular Cell, 2023).

B1: TFIIH subunit MAT1 (natural protein)
chain: MDDQGCPRCKTTKYRNPSLKLMVNVCGHTLCESCVDLLFVRGAGNCPECGTPLRKSNFRVQLFEDPTVDKEVEIRKKVLKIYNKREEDFPSLREYNDFLEEVEEIVFNLTNNVDLDNTKKKMEIYQKENKDVIQKNKLKLTREQEELEEALEVERQENEQRRLFIQKEEQLQQILKRKNKQAFLDELESSDLPVALLLAQHKDRSTQLEMQLEKPKPVKPVTFSTGIKMGQHISLAPIHKLEEALYEYQPLQIETYGPHVPELEMLGRLGYLNHVRAASPQDLAGGYTSSLACHRALQDAFSGLFWQPS
B2: TFIIH subunit p8 (natural protein)
chain: MVNVLKGVLIECDPAMKQFLLYLDESNALGKKFIIQDIDDTHVFVIAELVNVLQERVGELMDQNAFSLTQK

Assays:
Experiment in all cases: cryo-EM structure
TFIIH subunit XPB = TFIIH subunit XPB (human, UniProt P19447 1-782)
histone H4 = histone H4 (X. laevis, UniProt P62799)
histone H2B = histone H2B (X. laevis, UniProt P02281)

Chain of TFIIH subunit XPB (P19447 whole entry): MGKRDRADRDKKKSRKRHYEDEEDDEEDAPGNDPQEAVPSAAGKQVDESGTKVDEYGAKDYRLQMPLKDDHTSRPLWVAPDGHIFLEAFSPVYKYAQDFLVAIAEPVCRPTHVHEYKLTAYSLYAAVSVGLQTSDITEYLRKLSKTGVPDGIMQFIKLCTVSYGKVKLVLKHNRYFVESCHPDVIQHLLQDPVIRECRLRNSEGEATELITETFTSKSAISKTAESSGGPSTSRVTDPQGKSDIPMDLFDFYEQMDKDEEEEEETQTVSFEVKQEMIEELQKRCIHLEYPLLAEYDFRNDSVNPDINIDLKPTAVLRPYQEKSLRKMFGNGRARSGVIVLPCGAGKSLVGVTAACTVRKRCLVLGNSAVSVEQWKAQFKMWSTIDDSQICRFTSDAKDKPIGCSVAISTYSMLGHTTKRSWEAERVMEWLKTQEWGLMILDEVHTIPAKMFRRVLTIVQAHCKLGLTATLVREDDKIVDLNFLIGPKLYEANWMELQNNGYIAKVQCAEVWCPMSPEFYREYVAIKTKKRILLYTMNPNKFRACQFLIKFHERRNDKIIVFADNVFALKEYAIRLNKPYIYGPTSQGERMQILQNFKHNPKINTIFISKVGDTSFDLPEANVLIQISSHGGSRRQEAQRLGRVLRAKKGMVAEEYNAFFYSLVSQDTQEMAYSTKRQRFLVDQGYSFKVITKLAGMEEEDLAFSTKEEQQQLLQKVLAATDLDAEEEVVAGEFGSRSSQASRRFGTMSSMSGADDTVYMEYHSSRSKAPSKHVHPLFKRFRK

Binder | binding result (TFIIH subunit XPB) | binding result (histone H4) | binding result (histone H2B)
B1 | binds |  | 
B2 |  | binds | binds
